In US20190358302A1:

Molecular target: cation independent mannose-6-phosphate receptor (CIMPR)
Assay: immobilized CIMPR affinity column, elution with free M6P

% bound to CIMPR column: 90%
Substance: Fabrazyme (agalsidase beta) (from UniProt P06280 32-429) (enzyme)
